{"source": "patent US10662230B2", "about": "“Cyclic RGD cell-binding motif and uses thereof” (Spiber Technologies AB, priority 2015, dated 2020)", "molecules": {"B1": {"name": "FNCC-silk: recombinant spider silk protein 4RepCT with N-terminal cysteine-looped RGD motif CTGRGDSPAC (SEQ ID NO: 10) (protein)", "chain": "GPNSCTGRGDSPACGSASGQGGYGGLGQGGYGQGAGSSAAAAAAAAAAAAGGQGGQGQGGYGQGSGGSAAAAAAAAAAAAAAAGRGQGGYGQGSGGNAAAAAAAAAAAAAAAGQGGQGGYGRQSQGAGSAAAAAAAAAAAAAAGSGQGGYGGQGQGGYGQSSASASAAASAASTVANSVSRLSSPSAVSRVSSAVSSLVSNGQVNMAALPNIISNISSSVSASAPGASGCEVIVQALLEVITALVQIVSSSSVGYINPSAVNQITNVVANAMAQVMG", "modifications": "cyclic disulfide loop; Fusion protein; DISULFID (5)..(14)"}}, "key": {"[1]": {"system": "Normal human epidermal keratinocytes (KC)", "experiment": "Early attachment assay, keratinocytes on silk films", "format": "cell-based", "protocol": "Normal human epidermal keratinocytes from adult skin (NHEK-ad) were purchased from Lonza. Subculture, proliferation and migration experiments were done in KGM-Gold (Lonza), containing bovine pituitary extract, whereas adhesion experiments were performed in KGM-CD (chemically defined), supplemented with CaCl2) to give 1.2 mM Ca^2+.\nCells were harvested at passage 3-8, seeded at 20 000/cm^2 and allowed to adhere to the films or controls for 1 h in a cell incubator before gentle washing twice with pre-warmed phosphate buffered saline (PBS) followed by 10 min fixation with 96% ethanol. After three washings in water, cells were stained for 30 min with 0.1% Crystal Violet in H2O. Plates were dried after extensive washing in water.\nAttachment and morphology of cells bound to the films obtained in Example 3 were documented by taking micrographs at 2× and 10× magnification in an inverted bright field microscope. The color was then dissolved in 40 μL 20% acetic acid for 10 min, and 35 μL of the solution was transferred to a 384-well plate for optical density measurement at 595 nm (TECAN Infinite M200). Wells with cells fixed without pre-washing was used as positive control. Wells with no cells were used as blank. Experiments were run in hexaplicates and repeated three times.\nDetermination of cell coverage area within a defined region (9.12 mm^2) of the micrographs (at 2× magnification) was done using the software NIS elements BR (Nikon).\nAfter seeing this positive effect of the introduced FNCC motif, we wanted to find out how well the FNCC-silk would compare to native, full length fibronectin, where the RGD is presented on a turn loop constrained by the structure. We therefore used fibronectin from bovine plasma (BFN) to coat cell culture wells, as well as naked cell culture treated plastic (TCT), on which KC can be cultured, as a control. Serum-free experimental conditions was chosen to avoid possible interactions between the matrices and serum proteins that potentially could give rise to increased cell adherence.\nFor this purpose, we used two FN-silk variants where a linear RGD presentation is expected (FIG. 1a). The first variant (FNVS; SEQ ID NO: 15), contains the original sequence of the RGD-containing motif in fibronectin, to show the effect of the native flanking amino acids without influence of the loop conformation. In the second variant (FNSS; SEQ ID NO: 14), the two flanking cysteines in FNCC were substituted for serine, which resembles cysteine but lacks the —SH-group and is therefore unable to form disulfide bridges. The different FN-silk variants, as well as RGD-silk (SEQ ID NO: 16) and WT-silk (SEQ ID NO: 2), were evaluated with primary KC. Cells were analyzed both for early attachment (FIG. 5), spreading and formation of stress fibers (FIG. 6), and focal adhesions (FIG. 7). Early attachment assay and cellular stainings were performed as detailed in Example 6."}, "[2]": {"system": "Normal human epidermal keratinocytes (KC)", "experiment": "Formation of focal adhesions (F-actin/vinculin staining), keratinocytes", "format": "cell-based", "protocol": "Cells were harvested at passage 3-8, seeded at 3500/cm^2 and allowed to adhere onto films for 20 min, 1 or 3 hours in chamber slides. After gentle washing, cells were fixed with 4% paraformaldehyde, permeabilized with 0.1% Triton X-100 in PBS, and blocked with 1% bovine serum albumin (BSA, AppliChem) in PBS.\nPrimary antibody were used at the following concentrations in 1% BSA: mouse anti human vinculin (Sigma V9131) at 9.5 μg/ml, mouse-anti human beta1-integrin (activated conformation, clone HUTS-4) at 3.3 μg/mL, or mouse-anti human alpha5-integrin (ligand bound conformation, clone SNAKA-51) at 2.5 μg/mL, both Millipore.\nSecondary antibody was AlexaFlour488 goat anti mouse IgG (H+L), cross adsorbed (Invitrogen), used at 1:500. Phalloidin-AlexaFluor594 (Life Technologies) were used at 1:40 to detect filamentous actin. DAPI was used for nuclear staining. Slides were mounted in Fluorescence mounting medium (Dako, Copenhagen).\nFor microscopic analysis of cell adhesion (formation of focal adhesions and stress fibers), a confocal microscope was used (Carl Zeiss LSM 710) at 10× and 63× magnification.\nQuality of focal adhesions were graded from 1-4 regarding presence of small and dim focal adhesion (=1p), small and distinct focal adhesions (=2p), abundant focal adhesions (=3p) and large and bright focal adhesions (=4p), and multiplied with the portion of positive cells expressing this specific type of focal adhesions (0-4, where 0≈none of, 1≈one fourth of, 2≈half of, 3≈three fourths of, and 4≈all of the focal adhesion-positive cells.)\nFormation of focal adhesions within the cells was analyzed after 3 h by staining for F-actin in combination with vinculin, which is one of the major components of the focal adhesion complex. Co-staining of F-actin and vinculin is thus a sign of integrin-involved, well established binding of cells to the underlying substrate. Focal adhesions appear as yellow-greenish elongations of the F-actin filaments, often situated close to the cell membrane.\nThe results from the analysis of formation and characterization of focal adhesions in KC after adherence for 3 h onto films of WT-silk (SEQ ID NO: 2) or silk functionalized with FNCC (SEQ ID NO: 13), FNVS (SEQ ID NO: 15), FNSS (SEQ ID NO: 14) or RGD (SEQ ID NO: 16) is presented in FIG. 7. Slides were scanned with a confocal microscope at 10× for overview (FIG. 7a) and at 63× for details (FIG. 7b). Two types of grading of the focal adhesions in the cells were performed."}, "[3]": {"experiment": "Fabrication of cell culture matrices (fiber, film, foam, free-standing film)", "format": "physicochemical", "protocol": "Briefly, petri dishes were coated at room temperature with recombinant spider silk solution at a concentration of 0.3 mg/ml to generate films. Foams were made by rapid pipetting of the silk solution, and fibers were formed by gentle wagging in 15 ml tube followed by cutting into smaller pieces.\nFree-standing films were prepared by applying of a droplet of protein solution (3 mg/ml) onto a ˜3 mm wide frame of metal wire hanging hooked up in a well of a 96-well plate and allowed to dry over night at 25° C. and 30% rh under sterile conditions.\nIt was observed that a spider silk protein functionalized with a disulfide-looped RGD motif self-assembles into stable matrices. As shown by the micrographs in FIG. 2a, the FNCC-4RepCT (SEQ ID NO: 13) protein could be presented as matrices in the format of fiber (upper), film (middle) and free standing film (lower). Scale bars in FIG. 2a indicate 500 μm (upper & middle) and 1000 μm (lower). […] The smooth film formats (casted and free-standing) were used in the subsequent cell adhesion experiments to rule out the effects of matrix morphology."}}, "note": "“Also recorded” adds a separate entry of the source.", "data": [{"molecule": "B1", "values": [{"measurement": "adhesion in each individual experiment", "setting": "[1]; KC on tested silk films", "value": "most efficient adhesion of the tested films"}, {"measurement": "attachment seen in micrographs", "setting": "[1]; KC, 1 h adhesion to film, crystal violet staining", "value": "clear improvement of attachment is seen on the FNCC films compared to both RGD and WT"}, {"measurement": "cell coverage area within a defined region (9.12 mm^2)", "setting": "[1]; KC, 1 h adhesion to silk films, seeding 20 000/cm2", "value": "increased attachment (i.e. area covered by cells) compared to both FNSS and FNVS; also recorded: significantly higher adhesion of KC compared to RGD-silk"}, {"measurement": "cell coverage area within a defined region (9.12 mm^2)", "setting": "[1]; KC, 1 h adhesion to silk films, seeding 20 000/cm2, listed as FNCC", "value": "significantly larger than on both WT- and RGD-silk"}, {"measurement": "cell coverage area within a defined region (9.12 mm^2)", "setting": "[1]; KC, 1 h adhesion, comparison with bovine fibronectin coating and TCT plastic, serum-free", "value": "bound equally well to the BFN and the FNCC-silk after 1 h adherence, and importantly both significantly better than TCT"}, {"measurement": "OD of dissolved crystal violet", "setting": "[1]; KC, 1 h adhesion, pooled data from 8 experiments (data not shown)", "value": "very similar results"}, {"measurement": "effect of reducing agents added to the silk solution before films were casted", "setting": "[1]; KC, DTT, β-mercaptoethanol or TCEP added", "value": "no differences compared to non-reduced FNCC film were detected"}, {"measurement": "time after seeding at which prominent focal adhesions appeared", "setting": "[2]", "value": 20, "unit": "min"}, {"measurement": "percentage of cells exhibiting focal adhesions", "setting": "[2]; 3 h adherence, 10× magnification", "value": "significant increase in percentage of cells expressing focal adhesions on FNCC-silk, compared to RGD and WT"}, {"measurement": "quality (grading) of focal adhesions", "setting": "[2]; 3 h adherence, 63× magnification", "value": "tendency of more prominent focal adhesions in cells attached to FNCC-silk compared to the other silk types; also recorded: almost only prominent focal adhesions"}, {"measurement": "formation of free-standing films", "setting": "[3]", "value": "possible to form free-standing films"}, {"measurement": "stability and integrity of fibers, film and foam", "setting": "[3]", "value": "higher stability and integrity than noted for linear RGD silk proteins (RGD-4RepCT, SEQ ID NO: 16) and WT silk proteins"}]}]}
